According to article PMC3500698 (Science signaling, 2012):

What was measured:
[1] = target: extracellular signal-regulated kinase 2 (ERK2) (human) (UniProt P28482); test: fluorescence polarisation
[2] = test system: JNK1, p38α and ERK2; test: MAPK interaction profile from FP binding affinities; set-up: species or system human; settings: from FP binding affinities to JNK1, p38α and ERK2
[3] = target: p38α (human) (UniProt Q16539); test: fluorescence polarisation
[4] = target: extracellular signal-regulated kinase 2 (ERK2) (human, UniProt P28482); test: fluorescence polarisation
[5] = target: p38α (human, UniProt Q16539 1-360); test: fluorescence polarisation
p38α, sequence (Q16539 whole entry): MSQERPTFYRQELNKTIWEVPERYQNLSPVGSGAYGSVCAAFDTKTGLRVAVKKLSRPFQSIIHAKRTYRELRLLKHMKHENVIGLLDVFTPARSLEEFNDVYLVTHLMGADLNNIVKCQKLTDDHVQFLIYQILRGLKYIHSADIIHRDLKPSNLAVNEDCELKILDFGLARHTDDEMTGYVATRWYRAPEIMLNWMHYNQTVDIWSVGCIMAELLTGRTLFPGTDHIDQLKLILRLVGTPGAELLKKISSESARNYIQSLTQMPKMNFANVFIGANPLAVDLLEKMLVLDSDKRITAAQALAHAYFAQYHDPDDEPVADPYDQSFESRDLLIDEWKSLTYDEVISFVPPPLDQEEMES

p38α (human), sequence (Q16539 whole entry): as above
extracellular signal-regulated kinase 2 (ERK2) (human), sequence (P28482 whole entry): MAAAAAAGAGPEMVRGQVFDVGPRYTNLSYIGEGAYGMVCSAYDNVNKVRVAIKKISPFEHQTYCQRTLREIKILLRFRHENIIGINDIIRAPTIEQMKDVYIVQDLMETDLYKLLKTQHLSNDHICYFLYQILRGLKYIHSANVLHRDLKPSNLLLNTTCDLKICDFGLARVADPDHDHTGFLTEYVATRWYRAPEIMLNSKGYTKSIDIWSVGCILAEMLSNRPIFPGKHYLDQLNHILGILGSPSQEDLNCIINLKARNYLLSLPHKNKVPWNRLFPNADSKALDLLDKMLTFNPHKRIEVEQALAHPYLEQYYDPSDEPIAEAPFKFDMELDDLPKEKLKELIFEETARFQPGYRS
extracellular signal-regulated kinase 2 (ERK2), sequence (P28482 whole entry): as above

In the case of “pepRSK1 (C-terminal MAPK docking peptide of RSK1)”, the fold preference for the cognate MAPK (ERK2 against p38α) [1] is reported as 20 fold.

For LERPSRDHLYLPLE [pepNFAT4], the “MAPK binding profile (in words)” value [2] was “bound JNK1 exclusively” and the “MAPK binding profile (in words)” value ([2]; listed as NFAT4) was “JNK-specific”.

“pepMK2 (C-terminal MAPK docking peptide of MK2)” gave a fold preference for the cognate MAPK (p38α against ERK2) [3] of 400 fold.

B1: pepSynth-revD (artificially designed revD-motif peptide) (designed binder)
peptide: LSLSSLAASSLAKRRQQ
B1 showed a Kd [4] of roughly 10 µM and a Kd [5] of roughly 30 µM.
